Results: PMC3615900

Legend:
Settings in all cases: reference: wild type; sites S248
14-3-3β [1] = target: 14-3-3β (UniProt P31946); assay: Flag-Rubicon complex purification, immunoblot
14-3-3β [2] = target: 14-3-3β (UniProt Q9CQV8); assay: co-IP with αFlag, blot α14-3-3β
V5-14-3-3β = V5-14-3-3β (UniProt P31946); assay: co-IP with αV5, blot αFlag

Measured: binding against the reference

Rubicon (from UniProt Q92622) S248A
lost: 14-3-3β [1] | 14-3-3β [2] | V5-14-3-3β
